According to paper PMC5518672 (Nature structural & molecular biology, 2013):

Experiments:
SEC [1] = target: the molecule itself; assay: SEC
SEC [2] = target: the molecule itself; assay: SEC; remark: listed apart in the source
SEC-MALS = target: the molecule itself; assay: SEC-MALS

B1: recombinant full-length Aplysia CPEB (His6-CPEB fusion protein) (natural protein)
chain: not shown
SEC [1]
  stoichiometry N: ≥ 10
SEC [2]
  stoichiometry N: > 10
SEC-MALS
  stoichiometry N: 3
